Data: patent US20250223353A1 (BIOTHEUS, published 2025)
One block for each binder: values may come before it.

Columns and labels:
[1] = biological target: T1, cynomolgus monkey PVRIG-Fc protein (cynomolgus monkey, UniProt Q6DKI7 41-171 (human entry), limits assumed); assay: BLI (ForteBio), PVRIG-Fc on AHQ sensor, 100 nM Fab in solution, monovalent, 1:1 model
T1 construct: also called cynomolgus PVRIG-Fc protein; not shown: Fc part
T1 chain: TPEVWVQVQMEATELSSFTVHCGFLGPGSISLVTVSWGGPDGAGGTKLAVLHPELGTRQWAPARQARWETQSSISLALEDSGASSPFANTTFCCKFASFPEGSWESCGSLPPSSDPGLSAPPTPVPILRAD
Experimental: (§1) Biofilm layer optical interference technology (ForteBio) was used to determine the binding and dissociation rate constant (KD) values of the antibodies and their variants or Fab fragments obtained in Example 1 to human, cynomolgus monkey and mouse PVRIG. ForteBio affinity measurement was performed according to existing methods (Este, P et al., High throughput solution-based measurement of antibody-antigen affinity and epitope binning. Mabs, 2013.5 (2): p270-8).
(§2) The antigen-loaded sensor was incubated in 100 nM Fab solution to the plateau phase, and then the sensor was transferred to an analysis buffer and incubated for at least 2 minutes for measuring dissociation rate. The kinetic analysis was performed using a 1:1 binding model.

human PVRIG-Fc protein = biological target: T2, human PVRIG-Fc protein (human, UniProt Q6DKI7 41-171); assay: as above
T2 construct: also called PVRIG-Fc antigen (human); not shown: Fc part
T2 sequence: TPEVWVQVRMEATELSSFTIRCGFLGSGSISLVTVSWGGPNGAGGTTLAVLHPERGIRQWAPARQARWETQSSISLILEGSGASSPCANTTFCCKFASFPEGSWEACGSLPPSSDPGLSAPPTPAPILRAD
Experimental: as §1, §2

human PVRIG-his protein = biological target: T3, human PVRIG-his protein (human, UniProt Q6DKI7 41-171); assay: BLI (ForteBio), IgG on AHQ sensor, 100 nM PVRIG-his in solution, monovalent, 1:1 model
T3 construct: also called PVRIG-his antigen; human PVRIG protein; not shown: his tag
T3 sequence: T2 sequence
Experimental: as §1
The antibody-loaded sensor was incubated in 100 nM PVRIG-his antigen to the plateau phase, and then the sensor was transferred to an analysis buffer and incubated for at least 2 minutes for measuring dissociation rate. The kinetic analysis was performed using a 1:1 binding model.

[2] = biological target: T1, cynomolgus monkey PVRIG-Fc protein; assay: BLI (ForteBio), IgG on AHQ sensor, 100 nM PVRIG-Fc in solution, bivalent, 1:1 model
Experimental: as §1
(§3) The antibody-loaded sensor was continued to be loaded in a high concentration of irrelevant intact antibody for 10 min, saturating the Fc-binding site on the AHQ sensor. The saturated sensor was incubated in 100 nM PVRIG-Fc antigens to the plateau phase, and then the sensor was transferred to an analysis buffer and incubated for at least 2 minutes for measuring dissociation rate. The kinetic analysis was performed using a 1:1 binding model.

mouse PVRIG-Fc protein [3] = biological target: T4, mouse PVRIG-Fc protein (mouse); assay: BLI (ForteBio), IgG on AHQ sensor, 100 nM PVRIG-Fc in solution, bivalent
T4 construct: not shown: Fc part
T4 chain: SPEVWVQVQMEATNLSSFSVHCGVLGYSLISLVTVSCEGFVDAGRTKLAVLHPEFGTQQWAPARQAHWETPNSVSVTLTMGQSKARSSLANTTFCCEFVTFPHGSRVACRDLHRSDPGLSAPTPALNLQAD

[4] = biological target: T5, cynomolgus PVRIG overexpressed on CHO cells (cynomolgus, UniProt A0A2K5WVV8 1-322); assay: flow cytometry on CHO-cynoPVRIG cells
T5 construct: whole, on cells; also called CHO-cynoPVRIG cells
T5 sequence: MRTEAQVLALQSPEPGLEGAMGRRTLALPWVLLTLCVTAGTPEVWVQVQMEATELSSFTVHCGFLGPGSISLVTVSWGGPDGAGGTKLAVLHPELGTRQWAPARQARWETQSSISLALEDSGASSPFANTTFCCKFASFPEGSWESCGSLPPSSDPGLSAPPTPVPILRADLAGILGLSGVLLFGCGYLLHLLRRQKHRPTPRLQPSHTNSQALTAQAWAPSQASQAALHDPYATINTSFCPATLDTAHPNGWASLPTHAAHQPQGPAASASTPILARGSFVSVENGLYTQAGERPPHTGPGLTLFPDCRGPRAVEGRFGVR
Experimental: (§4) The overexpressing cells were expanded and adjusted to an appropriate cell density, and added to a 96-well flow cytometry plate. After centrifugation, the cells were added with a gradiently diluted sample to be tested, and incubated at 4° C. for 30 minutes. The cells were washed twice with PBS, and added with a fluorescent secondary antibody correspondingly diluted to an appropriate concentration, then incubated at 4° C. for 30 minutes, and washed twice with PBS. Cells were resuspended with PBS, and detected on a CytoFlex flow cytometer, and the corresponding MFI was calculated. Graphpad software was used for graphical analysis to obtain EC50 values.

[5] = biological target: T6, human PVRIG protein with mouse IgG2a Fc tag (human, UniProt Q6DKI7 41-171, limits assumed); assay: flow cytometry competition: human PVRIG-mouse IgG2a Fc (1 ug/mL) binding to CHO-huCD112 cells
T6 construct: not shown: mouse IgG2a Fc tag
T6 sequence (looked up): T2 sequence
Experimental: Specifically, CHO cells overexpressing human CD112 (CHO-huCD112 cells) were generated by transfection of the pCHO1.0 vector (purchased from Invitrogen) with cDNA encoding human CD112 cloned into the multiple cloning site (MCS), followed by pressure screening. The CHO-huCD112 cells were expanded and adjusted to a cell density of 2×10^6 cells/mL, added to a 96-well flow plate at 100 μL/well, and centrifuged for later use. The purified monoclonal antibody was gradiently diluted with PBS and the diluted sample was added to a 96-well flow plate at 60 μL/well. […] The above incubated samples were added at 100 μL/well to the 96-well flow plate containing CHO-huCD112 cells, incubated at 4° C. for 30 min and washed twice with PBS. APC-conjugated goat anti-mouse IgG antibody diluted 100-fold with PBS was added at 100 μL/well, incubated at 4° C. for 30 minutes and washed twice with PBS. Cells were resuspended with PBS at 100 μL/well, and detected on a CytoFlex flow cytometer, and the corresponding MFI was calculated.

[6] = biological target: T7, human PVRIG on the cell surface (human, UniProt Q6DKI7 41-326); assay: flow cytometry on CHO-huPVRIG cells
T7 construct: whole, on cells; also called CHO-huPVRIG cells; human PVRIG protein overexpressed on the surface of CHO cells
T7 sequence (looked up): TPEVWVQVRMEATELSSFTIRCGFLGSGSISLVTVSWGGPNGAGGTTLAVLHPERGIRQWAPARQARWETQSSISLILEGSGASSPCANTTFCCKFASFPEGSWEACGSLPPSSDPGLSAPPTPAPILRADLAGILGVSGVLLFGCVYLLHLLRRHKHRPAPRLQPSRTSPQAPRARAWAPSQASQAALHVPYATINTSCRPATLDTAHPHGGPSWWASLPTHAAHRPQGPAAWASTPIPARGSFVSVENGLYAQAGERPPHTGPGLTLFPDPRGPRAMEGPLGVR
Experimental: as §4

mouse PVRIG-Fc protein [7] = biological target: T4, mouse PVRIG-Fc protein; assay: BLI (ForteBio), IgG on AHQ sensor, 100 nM PVRIG-Fc in solution, bivalent, 1:1 model
Experimental: as §1, §3

[8] = biological target: Biotin-labeled mouse PVRIG huFc protein (mouse); assay: competition ELISA: biotin mouse PVRIG huFc (2 ug/mL) binding to coated mouse CD112-his
Experimental: Specifically, mouse CD112-his protein diluted with 1× coating buffer to a final concentration of 1 μg/mL was added to the ELISA plate at 100 μL/well, covered with the film, and coated overnight at 4° C. The coating solution in the ELISA plate was discarded, and the ELISA plate was washed three times with 1×PBST and was blocked with 5% BSA/PBS at 200 μL/well for 2 hours at room temperature. During the blocking period, the samples to be tested were gradient diluted with 1% BSA/PBS to a final volume of 60 μL/well. […] The above co-incubated samples were discarded, the ELISA plate was washed three times with 1×PBST, and SA-HRP diluted with 1% BSA/PBS was added at 100 μL/well and incubated for 1 hour at room temperature.

Kd [1]: 14.8 nM | Kd (human PVRIG-Fc protein): 0.383 nM
B1: ADI-56204 Fab fragment (Fab, V domains shown)
VH: QVQLVQSGAEVKKPGASVKVSCKASGYTFTHYGIYWVRQAPGQGLEWMGHIYAYSGDTDYAQKLQGRVTMTTDTSTSTAYMELRSLRSDDTAVYYCARGSPTYEHFNWFDPWGQGTLVTVSS
VL: DIQMTQSPSSLSASVGDRVTITCQASDDISDYLNWYQQKPGKAPKLLIYDASSLHTGVPSRFSGSGSGTDFTFTISSLQPEDIATYYCQQYGNLPITFGGGTKVEIK
notes: Fab made by papain digestion of the yeast full-length IgG, purified with Kappa Select

Kd (human PVRIG-his protein): 0.872 nM | Kd [2]: 0.244 nM | Kd (mouse PVRIG-Fc protein [7]): 2.62 nM
B6: ADI-56249 (antibody, V domains shown)
VH: QVQLVQSGAEVKKPGSSVKVSCKASGGTFSTFAISWVRQAPGQGLEWMGDIIPIFGSNYAQKFQGRVTITADESTSTAYMELSSLRSEDTAVYYCARGPLEGKVSPFDIWGQGTMVTVSS
VL: DIVMTQSPLSLPVTPGEPASISCRSSQSLLHSTGYNYLDWYLQKPGQSPQLLIYVGSTRASGVPDRFSGSGSGTDFTLKISRVEAEDVGVYYCMQERQFPITFGGGTKVEIK
notes: Full-length IgG secreted by yeast and purified on Protein A

Kd [1]: 21.2 nM | Kd (human PVRIG-Fc protein): 0.263 nM
B7: ADI-56249 Fab fragment (Fab, V domains shown)
VH: B6 VH
VL: B6 VL
notes: as for B1

IC50 [8]: 3.22 nM | EC50 [4]: 0.396 nM | IC50 [5]: 2.07 nM | EC50 [6]: 1.3 nM
B8: ADI-56249-G1LALA (antibody, human IgG1, kappa, L234A L235A, V domains shown)
VH: B6 VH
VL: DIVMTQSPLSLPVTPGEPASISCRSSQSLLHSTGYNYLDWYLQKPGQSPQLLIYVGSTRASGVPDRFSGSGSGTDFTLKISRVEAEDVGVYYCMQERQFPITFGGGTKVEIKR

Continued, binder first:

B2: ADI-56204 (antibody, V domains shown)
VH: B1 VH
VL: B1 VL
notes: as for B6
Kd (human PVRIG-his protein): 0.425 nM | Kd [2]: 0.197 nM | binding result (mouse PVRIG-Fc protein [3]): no binding (tested: 100 nM)

B3: ADI-56145 (antibody, V domains shown)
VH: QVQLVQSGAEVKKPGASVKVSCKASGYTFTSYGISWVRQAPGQGLEWVGWISSYDASTKYSQELQGRVTMTTDTSTSTAYMELRSLRSEDTAVYYCARGSPIYEHFNWFDPWGQGTLVTVSS
VL: EIVLTQSPATLSLSPGERATLSCRASQSVSSYLAWYQQKPGQAPRLLIYDSSNRATGIPARFSGSGSGTDFTLTISSLEPEDFAVYYCQQLSHHPLTFGGGTKVEIK
notes: Full-length IgG secreted by yeast and purified on Protein A; also called anti-PVRIG antibody ADI-56145 (full-length IgG obtained from Adimab)
Kd (human PVRIG-his protein): 2.04 nM | Kd [2]: 0.623 nM | binding result (mouse PVRIG-Fc protein [3]): no binding (tested: 100 nM)

B4: ADI-56145-G1LALA (antibody, human IgG1, kappa, L234A L235A, V domains shown)
VH: B3 VH
VL: EIVLTQSPATLSLSPGERATLSCRASQSVSSYLAWYQQKPGQAPRLLIYDSSNRATGIPARFSGSGSGTDFTLTISSLEPEDFAVYYCQQLSHHPLTFGGGTKVEIKR
EC50 [4]: 37.6 nM | IC50 [5]: 1.36 nM | EC50 [6]: 2.29 nM

B5: ADI-56145 Fab fragment (Fab, V domains shown)
VH: B3 VH
VL: B3 VL
notes: Fab made by papain digestion of the yeast full-length IgG, purified with Kappa Select; also called Fab of ADI-56145
Kd [1]: 157 nM | Kd (human PVRIG-Fc protein): 0.758 nM

B9: ADI-56127 (antibody, V domains shown)
VH: QVQLVQSGAEVKKPGSSVKVSCKASGGTESVDAISWVRQAPGQGLEWMGDIIPFFDTDYAQKFQGRVTITADESTSTAYMELSSLRSEDTAVYYCAREGGTSWTHFFDLWGRGTLVTVSS
VL: not shown
notes: as for B6
Kd (human PVRIG-his protein): 0.364 nM | Kd [2]: 0.181 nM | Kd (mouse PVRIG-Fc protein [7]): 1.66 nM
